From US20260167959A1, “APTAZYME-BASED REGULATABLE GENE EXPRESSION SYSTEMS” (REJUVENATE BIO INC, priority 2022, published 2026)

B1: RA130 (nucleic acid)
DNA: GCGCGTCCTGGATTCGCGGAAACGCGTACATCCAGCTGAGAATACCAGCATCGTCTTGATGCCCTTGGAAGTCTCGACGAGTCCCAAATAGGACGAAACGCGC
modifications: expressed or natural sequence
B2: RA128 (nucleic acid)
DNA: GCGCGTCCTGGATTCGCGGAAACGCGTAAGTGATACCAGCATCGTCTTGATGCCCTTGGCAGCACTCATCCAGCTGACGAGTCCCAAATAGGACGAAACGCGC
modifications: expressed or natural sequence
B3: RA134 (nucleic acid)
DNA: GCGCGTCCTGGATTCGCGGAAACGCGTACATCCAGCTGACGAGTCGGAATACCAGCATCGTCTTGATGCCCTTGGAAGTCCGCCCAAATAGGACGAAACGCGC
modifications: expressed or natural sequence
B4: RA141 (nucleic acid)
DNA: GCGCGTCCTGGATTCGCGGAAACGCGTACATCCGGAATACCAGCATCGTCTTGATGCCCTTGGAAGTCCGGCCAGCTGACGAGTCCCAAATAGGACGAAACGCGC
modifications: expressed or natural sequence
B5: RA146 (nucleic acid)
DNA: GCGCGTCCTGGATTCGCGGAAACGCGTACATCCAGCTGACGAGTCCCAAATAGGAATACCAGCATCGTCTTGATGCCCTTGGAAGTCCGGACGAAACGCGC
modifications: expressed or natural sequence
B6: RA136 (nucleic acid)
DNA: GCGCGTCCTGGATTCGCGGAAACGCGTACATCCAGCTGACGAGTCCCAAATAGGACGAAACGGAGAATACCAGCATCGTCTTGATGCCCTTGGAAGTCTCCGC
modifications: expressed or natural sequence
B7: RA143 (nucleic acid)
DNA: GCGCGTCCTGGATTCGCGGAAACGCGTACATCCAGCTGACGAGTGATACCAGCATCGTCTTGATGCCCTTGGCAGCACTAGTCCCAAATAGGACGAAACGCGC
modifications: expressed or natural sequence
B8: RA140 (nucleic acid)
DNA: GCGCGTCCTGGATTCGCGGAAACGCGTACATCCAGCTGACGAGTCCGGAATACCAGCATCGTCTTGATGCCCTTGGAAGTCCGGCCCAAATAGGACGAAACGCGC
modifications: expressed or natural sequence
B9: RA144 (nucleic acid)
DNA: GCGCGCGAGAATACCAGCATCGTCTTGATGCCCTTGGAAGTCTCGTCCTGGATTCGCGGAAACGCGTACATCCAGCTGACGAGTCCCAAATAGGACGAAACGCGC
modifications: expressed or natural sequence
B10: RA142 (nucleic acid)
DNA: GCGCGTCCTGGATTCGCGGAAACGCGTACGGAATACCAGCATCGTCTTGATGCCCTTGGAAGTCCATCCAGCTGACGAGTCCCAAATAGGACGAAACGCGC
modifications: expressed or natural sequence
B11: RA012 (nucleic acid)
DNA: GCGCGTCCTGGATTCGCGGAAACAGAATACCAGCATCGTCTTGATGCCCTTGGAAGTCTGCGTACATCCAGCTGACGAGTCCCAAATAGGACGAAACGCGC
modifications: expressed or natural sequence
B12: RA133 (nucleic acid)
DNA: GCGCGAGAATACCAGCATCGTCTTGATGCCCTTGGAAGTCTCGTCCTGGATTCGCGGAAACGCGTACATCCAGCTGACGAGTCCCAAATAGGACGAAACGCGC
modifications: expressed or natural sequence
B13: RA131 (nucleic acid)
DNA: GCGCGTCCTAGAATACCAGCATCGTCTTGATGCCCTTGGAAGTCTGGATTCGCGGAAACGCGTACATCCAGCTGACGAGTCCCAAATAGGACGAAACGCGC
modifications: expressed or natural sequence
B14: RA013 (nucleic acid)
DNA: GCGCGTCCTGGATTCGCGGAAACGCGTACATCCAGCTGACGAGTCCCAAATAGGACGAAACGAGAATACCAGCATCGTCTTGATGCCCTTGGAAGTCTCGC
modifications: expressed or natural sequence
B15: RA138 (nucleic acid)
DNA: GCGCGGAATACCAGCATCGTCTTGATGCCCTTGGAAGTCCGCGTCCTGGATTCGCGGAAACGCGTACATCCAGCTGACGAGTCCCAAATAGGACGAAACGCGC
modifications: expressed or natural sequence
B16: RA132 (nucleic acid)
DNA: GCGCGTCCTGGATTCGCGGAATACCAGCATCGTCTTGATGCCCTTGGAAGTCCGGAAACGCGTACATCCAGCTGACGAGTCCCAAATAGGACGAAACGCGC
modifications: expressed or natural sequence
B17: RA139 (nucleic acid)
DNA: GGAGAATACCAGCATCGTCTTGATGCCCTTGGAAGTCTCCGCGTCCTGGATTCGCGGAAACGCGTACATCCAGCTGACGAGTCCCAAATAGGACGAAACGCGC
modifications: expressed or natural sequence
B18: RA137 (nucleic acid)
DNA: GCGCGTCCTGGATTCGCGGAAACGCGTACGAGAATACCAGCATCGTCTTGATGCCCTTGGAAGTCTCATCCAGCTGACGAGTCCCAAATAGGACGAAACGCGC
modifications: expressed or natural sequence
B19: RA129 (nucleic acid)
DNA: GCGCGTCCTGGATTCCACTTCGGGTACATCCAGCTGACGAGTCCCAAATAGGACGAAACGCGC
modifications: expressed or natural sequence
B20: RA145 (nucleic acid)
DNA: GCGCGGAATACCAGCATCGTCTTGATGCCCTTGGAAGTCCGTCCTGGATTCGCGGAAACGCGTACATCCAGCTGACGAGTCCCAAATAGGACGAAACGCGC
modifications: expressed or natural sequence
B21: RA135 (nucleic acid)
DNA: GCGCGTCCTGGATTCGCGGAAACGAGTGATACCAGCATCGTCTTGATGCCCTTGGCAGCACTCGTACATCCAGCTGACGAGTCCCAAATAGGACGAAACGCGC
modifications: expressed or natural sequence

Each molecule was assayed on Renilla luciferase RNA (assay: Barcoded aptazyme variant library screen: un-cleaved Renilla luciferase RNA by barcode read counts, HEK293-T cells). Conditions: un-cleaved Renilla luciferase RNA, HEK293-T cells cultured with 1 mM theophylline (ON) over without theophylline (OFF); barcode read counts, triplicate.
Assay type: cell-based
Summary of the method: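 Aptazyme variants (seven theophylline aptamers inserted after each T3H48 ribozyme nucleotide, 9-nt barcoded) cloned into the 3′ UTR of Renilla luciferase in psiCHECK-2; cells cultured ± theophylline, in triplicate. RNA and DNA barcodes amplified and sequenced; normalized read counts gave un-cleaved RNA fraction and ON/OFF fold-change.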

B1 and B2 are the same in “Fold change in RNA expression between the ON state and the OFF state” value (“Fold change” for short): 1.4 fold for the first, 1.4 fold for the second.

B3 and B4 are the same in “Fold change” value: 1.4 fold for the first, 1.4 fold for the second.

B5 and B6 are the same in “Fold change” value: 1.4 fold for the first, 1.4 fold for the second.

B7 and B8 are the same in “Fold change” value: 1.4 fold for the first, 1.4 fold for the second.

B9 and B10 are the same in “Fold change” value: 1.4 fold for the first, 1.4 fold for the second.

First: B11
Second: B12
The “Fold change” value of the first is higher: 3.4 fold for the first, 1.4 fold for the second.

Compared with B13, B14 is higher in “Fold change” value: 1.4 fold for the first, 3.3 fold for the second.

B15 and B16 are the same in “Fold change” value: 1.4 fold for the first, 1.4 fold for the second.

B17 and B18 are the same in “Fold change” value: 1.4 fold for the first, 1.4 fold for the second.

B19 and B20 are the same in “Fold change” value: 1.4 fold for the first, 1.4 fold for the second.

In the case of B21, the “Fold change” value is reported as 1.4 fold.
